Test results reported in patent publication US20160272693A1 (ZEALAND PHARMA A S, published 2016).
*1 amine or outer side, *2 acyl side, *3 side chain or, on linkers, in order; H or OH if unused. Bridges are numbered along the chain shown (N, C = ends). [ ]: non-standard residue; d: D form. The star is where a group is joined. C20 diacid = O=C(O)CCCCCCCCCCCCCCCCCCC(=O)*; γGlu = O=C(O)[C@H](CCC(=O)[*:2])N[*:1]; Hyp = O=C(O)[C@@H]1C[C@@H](O)CN1; NMeI = CC[C@H](C)[C@H](NC)C(=O)O; Aad = N[C@@H](CCCC(=O)O)C(=O)O; Orn = NCCC[C@H](N)C(=O)O; Sar = CNCC(=O)O

T1: human amylin receptor 3 (hAMYR3), hCTR2 co-expressed with human receptor activity modifying protein 3 (hRAMP3) (human, UniProt P30988 25-474; O60896 24-148)
T1 sequence (looked up) 1: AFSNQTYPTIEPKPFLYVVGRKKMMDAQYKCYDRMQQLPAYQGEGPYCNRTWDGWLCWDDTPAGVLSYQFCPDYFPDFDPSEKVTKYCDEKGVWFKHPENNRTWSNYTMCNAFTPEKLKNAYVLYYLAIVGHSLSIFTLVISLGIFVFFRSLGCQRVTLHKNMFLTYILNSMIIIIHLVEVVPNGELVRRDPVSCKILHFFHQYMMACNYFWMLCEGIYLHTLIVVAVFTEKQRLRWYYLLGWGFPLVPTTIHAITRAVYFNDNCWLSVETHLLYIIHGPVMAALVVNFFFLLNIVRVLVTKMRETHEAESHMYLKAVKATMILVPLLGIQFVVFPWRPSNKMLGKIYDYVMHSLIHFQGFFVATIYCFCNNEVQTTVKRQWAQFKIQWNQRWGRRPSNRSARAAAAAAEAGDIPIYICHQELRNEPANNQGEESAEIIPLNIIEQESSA
T1 sequence (looked up) 2: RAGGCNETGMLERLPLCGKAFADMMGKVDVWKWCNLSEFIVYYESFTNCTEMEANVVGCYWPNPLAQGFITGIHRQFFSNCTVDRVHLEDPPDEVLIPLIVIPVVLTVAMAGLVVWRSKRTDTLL


Molecular target: T1, human amylin receptor 3 (hAMYR3), hCTR2 …
Assay: cell-based or functional assay

Row | Binder | hAMYR3 EC50 (nM); cAMP induction [nM]
1 | {C20 diacid}-[γGlu]RCGTATCATERLAHFLQRSSF[Sar]A[NMeI]LSSTEVGS[Aad]T[Hyp]-NH2 (disulfide 3-8; SMILES CC[C@H](C)[C@@H](C(=O)N[C@@H](CC(C)C)C(=O)N[C@@H](CO)C(=O)N[C@@H](CO)C(=O)N[C@H](C(=O)N[C@@H](CCC(=O)O)C(=O)N[C@H](C(=O)NCC(=O)N[C@@H](CO)C(=O)N[C@@H](CCCC(=O)O)C(=O)N[C@H](C(=O)N1C[C@H](O)C[C@H]1C(N)=O)[C@@H](C)O)C(C)C)[C@@H](C)O)N(C)C(=O)[C@H](C)NC(=O)CN(C)C(=O)[C@H](Cc1ccccc1)NC(=O)[C@H](CO)NC(=O)[C@H](CO)NC(=O)[C@H](CCCNC(=N)N)NC(=O)[C@H](CCC(N)=O)NC(=O)[C@H](CC(C)C)NC(=O)[C@H](Cc1ccccc1)NC(=O)[C@H](Cc1c[nH]cn1)NC(=O)[C@H](C)NC(=O)[C@H](CC(C)C)NC(=O)[C@H](CCCNC(=N)N)NC(=O)[C@H](CCC(=O)O)NC(=O)[C@@H](NC(=O)[C@H](C)NC(=O)[C@@H]1CSSC[C@H](NC(=O)[C@H](CCCNC(=N)N)NC(=O)CC[C@H](NC(=O)CCCCCCCCCCCCCCCCCCC(=O)O)C(=O)O)C(=O)NCC(=O)N[C@@H]([C@@H](C)O)C(=O)N[C@@H](C)C(=O)N[C@@H]([C@@H](C)O)C(=O)N1)[C@@H](C)O) [[19CD]-isoGlu-R-C( )-GTAT-C( )-ATERLAHFLQRSSF-Gly(Me)-A-Ile(Me)-LSSTEVGS-Aad-T-Hyp-NH2 (Compd. 53)] | 0.13
2 | {C20 diacid}-[γGlu]RCGTATCATERLADFLQRSSF[Sar]A[NMeI]LSSTEVGSNT[Hyp]-NH2 (disulfide 3-8; SMILES CC[C@H](C)[C@@H](C(=O)N[C@@H](CC(C)C)C(=O)N[C@@H](CO)C(=O)N[C@@H](CO)C(=O)N[C@H](C(=O)N[C@@H](CCC(=O)O)C(=O)N[C@H](C(=O)NCC(=O)N[C@@H](CO)C(=O)N[C@@H](CC(N)=O)C(=O)N[C@H](C(=O)N1C[C@H](O)C[C@H]1C(N)=O)[C@@H](C)O)C(C)C)[C@@H](C)O)N(C)C(=O)[C@H](C)NC(=O)CN(C)C(=O)[C@H](Cc1ccccc1)NC(=O)[C@H](CO)NC(=O)[C@H](CO)NC(=O)[C@H](CCCNC(=N)N)NC(=O)[C@H](CCC(N)=O)NC(=O)[C@H](CC(C)C)NC(=O)[C@H](Cc1ccccc1)NC(=O)[C@H](CC(=O)O)NC(=O)[C@H](C)NC(=O)[C@H](CC(C)C)NC(=O)[C@H](CCCNC(=N)N)NC(=O)[C@H](CCC(=O)O)NC(=O)[C@@H](NC(=O)[C@H](C)NC(=O)[C@@H]1CSSC[C@H](NC(=O)[C@H](CCCNC(=N)N)NC(=O)CC[C@H](NC(=O)CCCCCCCCCCCCCCCCCCC(=O)O)C(=O)O)C(=O)NCC(=O)N[C@@H]([C@@H](C)O)C(=O)N[C@@H](C)C(=O)N[C@@H]([C@@H](C)O)C(=O)N1)[C@@H](C)O) [[19CD]-isoGlu-R-C( )-GTAT-C( )-ATERLADFLQRSSF-Gly(Me)-A-Ile(Me)-LSSTEVGSNT-Hyp-NH2 (Compd. 54)] | 0.14
3 | {C20 diacid}-[γGlu]RCGTATCATERLAHFLQRSSF[Sar]A[NMeI]LSSTEVGS[Orn]T[Hyp]-NH2 (disulfide 3-8; SMILES CC[C@H](C)[C@@H](C(=O)N[C@@H](CC(C)C)C(=O)N[C@@H](CO)C(=O)N[C@@H](CO)C(=O)N[C@H](C(=O)N[C@@H](CCC(=O)O)C(=O)N[C@H](C(=O)NCC(=O)N[C@@H](CO)C(=O)N[C@@H](CCCN)C(=O)N[C@H](C(=O)N1C[C@H](O)C[C@H]1C(N)=O)[C@@H](C)O)C(C)C)[C@@H](C)O)N(C)C(=O)[C@H](C)NC(=O)CN(C)C(=O)[C@H](Cc1ccccc1)NC(=O)[C@H](CO)NC(=O)[C@H](CO)NC(=O)[C@H](CCCNC(=N)N)NC(=O)[C@H](CCC(N)=O)NC(=O)[C@H](CC(C)C)NC(=O)[C@H](Cc1ccccc1)NC(=O)[C@H](Cc1c[nH]cn1)NC(=O)[C@H](C)NC(=O)[C@H](CC(C)C)NC(=O)[C@H](CCCNC(=N)N)NC(=O)[C@H](CCC(=O)O)NC(=O)[C@@H](NC(=O)[C@H](C)NC(=O)[C@@H]1CSSC[C@H](NC(=O)[C@H](CCCNC(=N)N)NC(=O)CC[C@H](NC(=O)CCCCCCCCCCCCCCCCCCC(=O)O)C(=O)O)C(=O)NCC(=O)N[C@@H]([C@@H](C)O)C(=O)N[C@@H](C)C(=O)N[C@@H]([C@@H](C)O)C(=O)N1)[C@@H](C)O) [[19CD]-isoGlu-R-C( )-GTAT-C( )-ATERLAHFLQRSSF-Gly(Me)-A-Ile(Me)-LSSTEVGS-Orn-T-Hyp-NH2 (Compd. 51)] | 0.11
4 | {C20 diacid}-[γGlu]RCGTATCATERLAHFLQRSSF[Sar]A[NMeI]LSSTEVGSGT[Hyp]-NH2 (disulfide 3-8; SMILES CC[C@H](C)[C@@H](C(=O)N[C@@H](CC(C)C)C(=O)N[C@@H](CO)C(=O)N[C@@H](CO)C(=O)N[C@H](C(=O)N[C@@H](CCC(=O)O)C(=O)N[C@H](C(=O)NCC(=O)N[C@@H](CO)C(=O)NCC(=O)N[C@H](C(=O)N1C[C@H](O)C[C@H]1C(N)=O)[C@@H](C)O)C(C)C)[C@@H](C)O)N(C)C(=O)[C@H](C)NC(=O)CN(C)C(=O)[C@H](Cc1ccccc1)NC(=O)[C@H](CO)NC(=O)[C@H](CO)NC(=O)[C@H](CCCNC(=N)N)NC(=O)[C@H](CCC(N)=O)NC(=O)[C@H](CC(C)C)NC(=O)[C@H](Cc1ccccc1)NC(=O)[C@H](Cc1c[nH]cn1)NC(=O)[C@H](C)NC(=O)[C@H](CC(C)C)NC(=O)[C@H](CCCNC(=N)N)NC(=O)[C@H](CCC(=O)O)NC(=O)[C@@H](NC(=O)[C@H](C)NC(=O)[C@@H]1CSSC[C@H](NC(=O)[C@H](CCCNC(=N)N)NC(=O)CC[C@H](NC(=O)CCCCCCCCCCCCCCCCCCC(=O)O)C(=O)O)C(=O)NCC(=O)N[C@@H]([C@@H](C)O)C(=O)N[C@@H](C)C(=O)N[C@@H]([C@@H](C)O)C(=O)N1)[C@@H](C)O) [[19CD]-isoGlu-R-C( )-GTAT-C( )-ATERLAHFLQRSSF-Gly(Me)-A-Ile(Me)-LSSTEVGSGT-Hyp-NH2 (Compd. 52)] | 0.09

Further lines, results first:

Row | hAMYR3 EC50 (nM); cAMP induction [nM] | Binder
5 | 0.1 | {C20 diacid}-[γGlu]RCNTATCATQRLAHFLQRSSF[Sar]A[NMeI]LSSTEVGSNT[Hyp]-NH2 (disulfide 3-8) [[19CD]-isoGlu-R-C( )-NTAT-C( )-ATQRLAHFLQRSSF-Gly(Me)-A-Ile(Me)-LSSTEVGSNT-Hyp-NH2 (Compd. 58)]
6 | 0.08 | {C20 diacid-γGlu}-RCNTATCATERLAHFLQRSSF[Sar]A[NMeI]LSSTEVGSNT[Hyp]-NH2 (disulfide 2-7) [[19CD]-isoGlu-R-C( )-NTAT-C( )-ATERLAHFLQRSSF-Gly(Me)-A-Ile(Me)-LSSTEVGSNT-Hyp-NH2 (Compd. 56)]
7 | 0.19 | {C20 diacid-γGlu}-RCNTATCATQRLAHFL[Aad]RSSF[Sar]A[NMeI]LSSTEVGSNT[Hyp]-NH2 (disulfide 2-7; SMILES CC[C@H](C)[C@@H](C(=O)N[C@@H](CC(C)C)C(=O)N[C@@H](CO)C(=O)N[C@@H](CO)C(=O)N[C@H](C(=O)N[C@@H](CCC(=O)O)C(=O)N[C@H](C(=O)NCC(=O)N[C@@H](CO)C(=O)N[C@@H](CC(N)=O)C(=O)N[C@H](C(=O)N1C[C@H](O)C[C@H]1C(N)=O)[C@@H](C)O)C(C)C)[C@@H](C)O)N(C)C(=O)[C@H](C)NC(=O)CN(C)C(=O)[C@H](Cc1ccccc1)NC(=O)[C@H](CO)NC(=O)[C@H](CO)NC(=O)[C@H](CCCNC(=N)N)NC(=O)[C@H](CCCC(=O)O)NC(=O)[C@H](CC(C)C)NC(=O)[C@H](Cc1ccccc1)NC(=O)[C@H](Cc1c[nH]cn1)NC(=O)[C@H](C)NC(=O)[C@H](CC(C)C)NC(=O)[C@H](CCCNC(=N)N)NC(=O)[C@H](CCC(N)=O)NC(=O)[C@@H](NC(=O)[C@H](C)NC(=O)[C@@H]1CSSC[C@H](NC(=O)[C@H](CCCNC(=N)N)NC(=O)CC[C@H](NC(=O)CCCCCCCCCCCCCCCCCCC(=O)O)C(=O)O)C(=O)N[C@@H](CC(N)=O)C(=O)N[C@@H]([C@@H](C)O)C(=O)N[C@@H](C)C(=O)N[C@@H]([C@@H](C)O)C(=O)N1)[C@@H](C)O) [[19CD]-isoGlu-R-C( )-NTAT-C( )-ATQRLAHFL-Aad-RSSF-Gly(Me)-A-Ile(Me)-LSSTEVGSNT-Hyp-NH2 (Compd. 50)]
